This passage reports EC50 results from patent EP4692127A1 (Kangma-Healthcode (Shanghai) Biotech Co., Ltd, dated 2026).

As a reminder, the EC50 is the concentration needed to bring the measured effect to its halfway point.

The target in the assay is recombinant human PD-1 protein (human, UniProt Q15116 25-167). In words: indirect ELISA, recombinant human PD-1 coated, HRP anti-human IgG (Fab specific), 4-parameter fit. On the technique in general: ELISA stands for enzyme-linked immunosorbent assay.
Sequence of recombinant human PD-1 protein (Q15116 25-167 limits assumed): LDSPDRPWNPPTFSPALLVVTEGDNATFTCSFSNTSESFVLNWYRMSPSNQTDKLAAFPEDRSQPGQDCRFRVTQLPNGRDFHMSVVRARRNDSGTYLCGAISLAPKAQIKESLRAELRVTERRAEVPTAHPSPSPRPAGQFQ

B1: Commercially available Tislelizumab (antibody, human IgG4 S228P, kappa)
heavy: QVQLQESGPGLVKPSETLSLTCTVSGFSLTSYGVHWIRQPPGKGLEWIGVIYADGSTNYNPSLKSRVTISKDTSKNQVSLKLSSVTAADTAVYYCARAYGNYWYIDVWGQGTTVTVSSASTKGPSVFPLAPCSRSTSESTAALGCLVKDYFPEPVTVSWNSGALTSGVHTFPAVLQSSGLYSLSSVVTVPSSSLGTKTYTCNVDHKPSNTKVDKRVESKYGPPCPPCPAPPVAGGPSVFLFPPKPKDTLMISRTPEVTCVVVAVSQEDPEVQFNWYVDGVEVHNAKTKPREEQFNSTYRVVSVLTVVHQDWLNGKEYKCKVSNKGLPSSIEKTISKAKGQPREPQVYTLPPSQEEMTKNQVSLTCLVKGFYPSDIAVEWESNGQPENNYKTTPPVLDSDGSFFLYSKLTVDKSRWQEGNVFSCSVMHEALHNHYTQKSLSLSLGK
light: DIVMTQSPDSLAVSLGERATINCKSSESVSNDVAWYQQKPGQPPKLLINYAFHRFTGVPDRFSGSGYGTDFTLTISSLQAEDVAVYYCHQAYSSPYTFGQGTKLEIKRTVAAPSVFIFPPSDEQLKSGTASVVCLLNNFYPREAKVQWKVDNALQSGNSQESVTEQDSKDSTYSLSSTLTLSKADYEKHKVYACEVTHQGLSSPVTKSFNRGEC
On to B1, for which the EC50 was found to be 0.0143 µg/mL.
